Assay: soluble on expression in E. coli; label from the status in PepcDB or PDB records

Sequence | soluble on expression in E. coli
MSIQYEAPLADSYGVADSFPKDFGYGEEEGDIEDSPSPSDSKPRILLMGLRRSGKSSIQKVVFHKMSPNETLFLESTNKIYKDDISSSSFVNFQIWDFPGQVDFFDPTFDYELIFRGTGALIFVIDAQDDYVEALSRLHLTVSRAYRVNPEINFEVFIHKVDGLSDDHKIETQRDIHQRANDDLADASLEKLHLSFYLTSIYDHSIFEAFSKVVQKLIPQLPTLENLLNIFISNSGIEKAFLFDVVSKIYIATDSSPVDMQSYELCCDMIDVVIDVSCIYGLKEDGSGSAYDKESMAIIKLNNTTVLYLKEVTKFLALVCILRGESFERKGLIDYNFHCFRKAIHEVFEVGVSTSRTSNQPVGTPLMKTVALNGTPRSTV | soluble
MGSDKIHHHHHHSCDNDDDESIAVPTPLQEAFSTRYPNVKNVKWETKAGYYVADFYDGYEASAWFTTDGNWHMTETDIPYTALPDPVKSAFEASDYKTWKRDDVDKLERQGIETVYVIEVENQNQEVDLYYSADGVLIKSIADTDDHENEHLPTTQLPAVMKTFIDGKYAGARIVEVDVEDDKNDWDFGFTEVDIIHFDSGLNRNVSKEVLFDKGREWYSTSWEVRRNELPTAVTNAISTEYAGYQMDDAEYFEMATETSYYQIELEGNNSPDIDIKVTADGTILK | not soluble
GSSCGNDESDPDSTVTIAMATVEKQPQYDAPYLVLDNGEKLWVVQHIVPYRDLKAGERIFGNYSFLEAGESGFAYNIRLNDYTLVPVQKIIGLNPDNMDSIGNMKVQIKDMWPSDDYLNVRFMLNFPSPQKPILNLVVNEMIPWTKDGYAHLELRYNNNGSQGRLVPGMVSFKLDDYSPENSELKGIKVLVNPVDGEEKTYIFSYPLTGEDVPGFNPLDLAELK | soluble
MAHHHHHHMEVGQRCRLLVADCTYTHATNSSDDIHGNGFTVTGVVVGVRPHAEEPWRRLYYVHCTRIEFGTELARQRRKAAAPSWSGAPLSTIGSGTIHSCNELRAAGGSFVSNGGYHYRYDGWYDAFALTPLSADVALANNTAAMASAGSSPPEPPATVSEPRDDEGAASASAVSHLPGQHRDAPEEWVAAMERDTAVCEVVYLCYAFQPWFSAPYSALQYLALPEDDVCHSVYVCHRCLSPFFTREQYYVHLAGEYCRLRTPPGRLIYHDEDAGYKAFLVDGAKNLHYGRCLSLLSKQLIESKVLSNDVDLYEYVVVTIPRASLPYMPAALPSCTSAEQCGVANLVALSREGFRQAASDFDAEDWDGDAVMGYFSRLKHHPDHTLSCIVTLPMFQRTRVATFLLDVAYWMTRQRQRLCGCGFCGRSGGAISRPFSPHGQSLLLSYWRRALLRSLAEVAPLHRRASRTAQPELRFTLAELRALMDIPIHTNDMETLLLHSEFAFYQPAAANAAAARYSDDDDSASPPTSPTSARRRQRHERGSTSTSLKDSQASSGSKLSSSSAGGSAGNGGSSTSGARYTGTLVLEAALLEAAAELHTKTPRSCVMFDKRWLVKDGRGAYAYDTPYYHH | not soluble
MGTEGGAMIRTVALVGHAGSGKTTLTEALLYKTGAKERRGRVEEGTTTTDYTPEAKLHRTTVRTGVAPLLFRGHRVFLLDAPGYGDFVGEIRGALEAADAALVAVSAEAGVQVGTERAWTVAERLGLPRMVVVTKLDKGGDYYALLEDLRSTLGPILPIDLPLYEGGKWVGLIDVFHGKAYRYENGEEREAEVPPEERERVQRFRQEVLEAIVETDEGLLEKYLEGEEVTGEALEKAFHEAVRRGLLYPVALASGEREIGVLPLLELILEALPSPTERFGDGPPLAKVFKVQVDPFMGQVAYLRLYRGRLKPGDSLQSEAGQVRLPHLYVPMGKDLLEVEEAEAGFVLGVPKAEGLHRGMVLWQGEKPESEEVPFARLPDPNVPVALHPKGRTDEARLGEALRKLLEEDPSLKLERQEETGELLLWGHGELHLATAKERLQDYGVEVEFSVPKVPYRETIKKVAEGQGKYKKQTGGHGQYGDVWLRLEPASEYGFEWRITGGVIPSKYQEAIEEGIKEAAKKGVLAGFPVMGFKAIVYNGSYHEVDSSDLAFQIAASLAFKKVMAEAHPVLLEPIYRLKVLAPQERVGDVLSDLQARRGRILGMEQEGALSVVHAEVPLAEVLEYYKALPGLTGGAGAYTLEFSHYAEVPPHLAQRIVQERAQEG | soluble
MKDDIKRRIDLAAGRKRSQLVLKNAQILNVFSHEIISGDIAIDQGKIVGIGNYNGLENIDLEGKVVVPGLIDGHVHMESAMVTPGQFARAIVPRGTTTIVADPHEIANVCGIPGIEYMLKASEGMPLNVYMMLPSCVPATSFENAGANLKAKDLAPLINHEKVLGLGELMDYPGVIAGEESIIDKIMIAEGKMIDGHGPDIKEEALNAYVAAGVRTEHECSTVEEMINRLRLGMYILIREGSAARNLKTLVRGITPENMRRCLFCTDDKHPEDILEAGHIDHNVRVAIKEGLDPISAVKMATINAAECYGLKDLGAIAPGYRADLVVLDNLETFHVTKVFKDGKLVAQDGKAFFEAQSTEDHTVTQTVNAKELTPEDLVLSLETDIVNVIKLLPHSLVTQRVSRKVEVKEGTFRYHEDLDILKLAVIERHKRTGNIGLGLVEDFRLKGGAIASTVAHDSHNIIVIGDNDEDMLLAVNELNTVGGGITICSKGEILQTLSLPIAGLMAQGTMEEVNEQLKQMLEIAYKKLGINEQIDPFMTLSFLALPVIPELKLTDLGLFDVKNFRFISLNR | not soluble
MGIHRLWKRFTIDCSGVRRGQTVLDLAGGTGDLTAKFSRLVGETGKVVLADINESMLKMGREKLRNIGVIGNVEYVQANAEALPFPDNTFDCITISFGLRNVTDKDKALRSMYRVLKPGGRLLVLEFSKPIIEPLSKAYDAYSFHVLPRIGSLVANDADSYRYLAESIRMHPDQDTLKAMMQDAGFESVDYYNLTAGVVALHRGYKLEHHHHHH | not soluble
MKPYYVTTAIAYPNAAPHVGHAYEYIATDAIARFKRLDRYDVRFLTGTDEHGLKVAQAAAAAGVPTAALARRNSDVFQRMQEALNISFDRFIRTTDADHHEASKELWRRMSAAGDIYLDNYSGWYSVRDERFFVESETQLVDGTRLTVETGTPVTWTEEQTYFFRLSAYTDKLLAHYHANPDFIAPETRRNEVISFVSGGLDDLSISRTSFDWGVQVPEHPDHVMYVWVDALTNYLTGAGFPDTDSELFRRYWPADLHMIGKDIIRFHAVYWPAFLMSAGIELPRRIFAHGFLHNRGEKMSKSVGNIVDPVALAEALGVDQVRYFLLREVPFGQDGSYSDEAIVTRINTDLANELGNLAQRSLSMVAKNLDGRVPNPGEFADADAALLATADGLLERVRGHFDAQAMHLALEAIWLMLGDANKYFSVQQPWVLRKSESEADQARFRTTLYVTCEVVRIAALLIQPVMPESAGKILDLLGQAPNQRSFAAVGVRLTPGTALPPPTGVFPRYQPPQPPEGK | not soluble
MNELVDTTEMYLRTIYDLEEEGVTPLRARIAERLDQSGPTVSQTVSRMERDGLLRVAGDRHLELTEKGRALAIAVMRKHRLAERLLVDVIGLPWEEVHAEACRWEHVMSEDVERRLVKVLNNPTTSPFGNPIPGLDELGVGPEPGADDANLVRLTELPAGSPVAVVVRQLTEHVQGDIDLITRLKDAGVVPNARVTVETTPGGGVTIVIPGHENVTLPHEMAHAVKVEKV | soluble
TLLPQVQEVAYNQMANAGYEGAVVAIKPSTGEILAMASTPSYDPSAIVNPDTAEQTWAALNADPGNPLLNHATQETLPPGSTFKVITTAAGLNAGYGPGSMLTGQDRITLPDGITTLENYAGQTCAGSQNVTLATAFQYSCNTAFVQMGIDVGKEKFDEAAHAFGVNDRYDLGVDMAPGTIGDVSDPSARGQSSIGQRDVAMSVLHNAVVAATVANGGKRMEPHLVNRIVGQDLKVIKETKPHQINEAVTPEVAATLTDLMRLSERHTAGYTGADIASKTGTAEHGEDSRNSNPHAWYIAFGPSANADVAVAVVVKNGGDAGQAATGGSVAAPIGRAVIAAAQAALAARG | not soluble
MWAAYFEKTLVYKQNVKKSRKSKKEDPAEAEKLMKQALEEYLPKYSELLPIILARGTVTLFKNLALTAKDAMTPKEVEPEEPTEEELAQQRRQQRAAAAPQQLEFKFEVAQGMKAVSTNDPEMEKKYAAENEVVAQKQSGATWTPDELASLVRLSTEKYPAGTPNRWEQMGRVLNRSAEDVIAMAGKMKQMKQEDYTKLLMTTIQQSVPVEEKSEDDWSQAEQKAFETALQKYPKGTDERWERISEEIGSKTKKQVMVRFKQLAEMIRKKKTNDT | not soluble
MGSDKIHHHHHHMLSHEEIVAIAEDLLSKRYGGVQTLSDVEQLNGSGTSAVLRARVANSPFLQQRSVVLKYVPSTGDVFDDSALVREIVSYQFTTSLSEDVRPGPVILAYDIDKRILVISDSGNGDTFADLIDQRTGDQRMQILRNLGQSLGSLHAATADREEDFNILLNRMLAKYPATAEMQKNRDRLLPAAIEVGKKILVDAGVTVPEVVEEFARVARRRLISGRHRAFTPFDLSPDNIIVAERTHFLDYEVAGFRDATFDVACVIAGFPQFVFSRPISDDEVDELIESWVQEVRGIWPNVNNEERLQARIVTALIGWALSSVAFMKLGSISGMLNLLHVTEDGNTTLDVSNLDELLIPRSAEDDELVQQDLHDTFSALQRFAARGLDSRFPEVARFADDVVRLFLKND | not soluble
MKAIILAGGQSERFGEPKAFAQINAQPFYKRIIDVLEGTNMFNQIIISTNETLASQFDHSDIIIDEDQNKDKGPLAGIQSVIQHYESEELFFVVSVDTPMISQKAVSKLYQFMVEHLIEDQLDIAGFKEKGRPIPTIAFYSPHTLPYIDDALNSNDYSLKSVYNKVKSDWLDVNLIESPDYWYKNINYQQDLDSLQQDILNR | not soluble
MSSQPRFIHLRTHTDFSMIDSIVKVKPLVKACAANEMVAMGLTDFTNFCGVVSFYSEMLSSGMKPIIGADVKVKSPLCGDEYFDLTLLAKNNEGYRNITLLLSKAYQRGYNDLPYIDQDWLIEHRDGVIILSGGTQGDVGKKLLKENVAEIESAVAFYQEFFADHFYLALSRTGRPNEERYIQAALKLAERCDLPLVATNDVMFLNTEDFEAHEIRVAIHDGYTLDDPKRPKCYTSQQYFRSEEDMCKLFADIPSALENTLLIAQRCSVTLRLGQYFLPQFPTGDLSTEDFLVQKSKEGLEERLVFLFPDEKVRLEKRPKYDERLQVELDVINQMGFPGYFLIVMEFIQWSKDNDIPVGPGRGSGAGSLVAYALKITDLDPLEFDLLFERFLNPERVSMPDFDVDFCMDGRDRVIEHVAETYGRGAVSQIITFGTMAAKAVIRDVGRVLGHPYGFVDRISKLIPPDPGMTLAKAFETEPQLQTAYDSDEEVRALINMARKLEGVTRNAGKHAGGVVISPTLITDFAPLYCDNEGLHPVTHFDKNDVEYAGLVKFDFLGLRTLTIIKWALDIINVRMVREGKPRVDIAAIPLDDPESFELLKRSETTAVFQLESRGMKDLIKRLQPDCFEDIIALVALFRPGPLQSGMVDNFIDRKHGREEVSYPDAEYQHASLKPILEPTYGIILYQEQVMQIAQVLAGYTLGGADLLRRAMGKKKPEEMAKQRLVFKEGAEKNGIDGELSMKIFDLVEKFAGYGFNKSHSAAYALVSYQTLWLKTHFPAEFMAAVMTSEMDNTDKIVGLYDECLRMGLKVTPPDINIGKHHFSVNEQGEIVYGIGAIKGVGEGPIEALVAARNEGGIFKDLFDLCARVDLKKINRRTFESLIMSGAFDKLGPHRAALSKNLEDALRASDQHAKDEAMGQTDMFGVLTETHEDVENAYANTPPYTEKQILDGERETLGLYLSSHPVSRYLKELSHYTSTRLKDLAPNRRGQISTVAGLVVASRIAMTKKGNRLGIATLDDRSGRLDLTLFGESLEQFGEKLQKDTVIVASGQVSFDDFSGGLKMTVRELMTLDEARSRYVKSLAISLSEHQITPSFIKQFKALLEPVSGGTLPINVYYQSPKGRALLRLGVQWSIIPTDEILTELVNLLGESAVELEFE | not soluble
